Data published in article PMC11441981.

B1: GST-tagged CG9590 (Drosophila FAM114A), Q9VF39 W24A; W27A (protein)
chain: MAKNPKKEEDGGNDWAQSDEDDNADDAGDDDDKFVHVEKEQQPQEKVSSRNDAKGTAENQEKLETPRISAPATASATSSSWGLWGGKLSSVLTTATEGLGTITTQVNQGLNQIIGVPDPEELARINVAEKAEKAAKAPPEENVDDEKESSAAFGLDFVTNLGSKVLNTGLDTLEGIGKKTMTILQDNDPKLMNKRKLLGLEANSPNLSAVLLEAKKEADQMEQSLQQLQLKRQKAQLRFEILFENYCGLVHFEALEILSKESRLKLDTLLDAVSGNARAELQETINEVKELIELEDLDVESEGDYEAEELSERLAATIKDAELGIQFDDIANHWTQSLSWLTSEEATAADLEQAYAKSIHALSEACALEMCKLHKIAELLLVKPHHSTANEVDGVVNLCQQFNGHLQGLSHRFAAVLSGKSETEESKGRVSTFFSEMLSAVQFIEKAYKLFTPILQMGAV

Tests used:
Test in all cases: GST pull-down from S2 cell lysate with mass spectrometry (volcano plot of spectral intensities)
CG33303 = settings: three biological replicates, read off a plot
Ostγ = settings: three biological replicates, read off a plot
εCOP = settings: three biological replicates, read off a plot
Ostδ = settings: three biological replicates, read off a plot
Arf79F = settings: three biological replicates, read off a plot
γCOP = settings: three biological replicates, read off a plot
Prat, Q27601 = target: T1, Prat, Q27601; settings: chain shown with the change, three biological replicates, read off a plot
T1 chain: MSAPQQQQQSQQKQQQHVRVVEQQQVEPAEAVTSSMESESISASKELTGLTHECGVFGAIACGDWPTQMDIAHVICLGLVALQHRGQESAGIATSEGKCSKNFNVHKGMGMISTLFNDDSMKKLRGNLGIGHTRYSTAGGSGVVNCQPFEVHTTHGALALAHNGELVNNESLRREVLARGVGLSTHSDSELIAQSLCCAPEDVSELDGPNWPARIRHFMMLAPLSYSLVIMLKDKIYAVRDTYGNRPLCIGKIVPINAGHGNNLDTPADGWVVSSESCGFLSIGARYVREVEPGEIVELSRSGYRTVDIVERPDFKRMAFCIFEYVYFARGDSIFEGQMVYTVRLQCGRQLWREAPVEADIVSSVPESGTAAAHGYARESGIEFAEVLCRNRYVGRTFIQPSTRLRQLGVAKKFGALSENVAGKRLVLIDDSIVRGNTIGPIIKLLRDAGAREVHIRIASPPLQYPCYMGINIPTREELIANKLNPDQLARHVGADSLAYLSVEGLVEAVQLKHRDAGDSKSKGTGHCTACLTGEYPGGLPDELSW

Row | Molecule | other: Difference Log2(CG9590-GST, Wild-type vs W24,27A mutant) (CG33303) [log2] | other: Difference Log2(CG9590-GST, Wild-type vs W24,27A mutant) (Ostγ) [log2] | other: Difference Log2(CG9590-GST, Wild-type vs W24,27A mutant) (εCOP) [log2] | other: Difference Log2(CG9590-GST, Wild-type vs W24,27A mutant) (Ostδ) [log2] | other: Difference Log2(CG9590-GST, Wild-type vs W24,27A mutant) (Arf79F) [log2] | other: Difference Log2(CG9590-GST, Wild-type vs W24,27A mutant) (γCOP) [log2] | other: Difference Log2(CG9590-GST, Wild-type vs W24,27A mutant) (Prat, Q27601) [log2]
1 | GST-tagged CG9590 (Drosophila FAM114A) (from UniProt Q9VF39) W24A; W27A | 2.5 | 1.1 | 5.5 | 1.7 | 1.4 | 6.3 | –
2 | B1 | – | – | – | – | – | – | 9.8
